The assay concerns the target Class A TC protein XptA2wi (Xenorhabdus nematophilus xwi). Description: cell-based or functional assay.

In turn, TcdB2+TccC3 complex (non fused) came in with a killing/stunting activity against corn earworm larvae, XptA2 held constant at 250 ng/cm^2 of 7.8 ng/cm^2.
